The record followed here is patent publication US20100310640A1.

The labels stand for the following.
T1: HLA-DR DRB1*0405 (human)
T1 chain 1: not shown
T1 chain 2: not shown

T2: HLA-DR DRB5*0101 (human)
T2 chain 1: not shown
T2 chain 2: not shown

T3: HLA-DR DRB1*0401 (human)
T3 chain 1: not shown
T3 chain 2: not shown

T4: HLA-DR DRB1*0404 (human)
T4 chain 1: not shown
T4 chain 2: not shown

T5: HLA-DR DRB1*0101 (human)
T5 chain 1: not shown
T5 chain 2: not shown

T6: HLA-DR DRB1*1302 (human)
T6 chain 1: not shown
T6 chain 2: not shown

T7: HLA-DR DRB1*0701 (human)
T7 chain 1: not shown
T7 chain 2: not shown

T8: HLA-DR DRB4*0101 (human)
T8 chain 1: not shown
T8 chain 2: not shown

The first assay deals with T1, HLA-DR DRB1*0405 (human). The assay is described as follows: radioligand inhibition, purified HLA-DR. To be noted: remark: other sources report otherwise.
ICTIDVYMIMVKCWM [Peptide 1622.04]: the 50% inhibitory concentration (IC50) amounted to 955 nM.
As for SSYLSGANLNLSCHS [CEA.603 peptide 9012.0137], the IC50 amounted to 7820 nM.
Same read-out and setting: the result for GVTVWELMTFGAKPY [Peptide 9019.0090] reads 2110 nM; that for DNSIRPEELLQMELL [Cyclin D1.129], 16500 nM.
INGIPQQHTQVLFIA [CEA.629 peptide 9019.0139] returned an IC50 of 942 nM.
In turn, TTPVTGASPGGLREL [Her2/neu.126] showed an IC50 of 13200 nM.
On the same count and under the same terms, in the case of APTISPLNTSYRSGE [CEA.239 peptide 9919.0121] it was 5990 nM.

The next assay has as its target T2, HLA-DR DRB5*0101 (human). The assay is described as follows: radioligand inhibition, purified HLA-DR. To be noted: remark: other sources report otherwise.
For SSYLSGANLNLSCHS [CEA.603 peptide 9012.0137], the IC50 was determined as 14100 nM.
Take ICELHCPALVTYNTD [Her2/neu.263]: the IC50 was 2810 nM.
On the same count and under the same terms, in the case of TVGIMIGVLVGVALI [CEA.688 peptide 9019.05] it was 384 nM; in that of TTPVTGASPGGLREL [Her2/neu.126], 3000 nM; in that of MRKIVATWMLEVCEE [Cyclin D1.56], 17000 nM.
Still for that read-out and setting: in the case of GYVIGTQQATPGPAY [CEA.81 peptide 9019.0110] it was 10200 nM.

The target of a further assay is T3, HLA-DR DRB1*0401 (human). Nature of the assay: radioligand inhibition, purified HLA-DR. As to conditions: remark: other sources report otherwise.
The molecule EPKKLRPPPARTPCQ [Peptide 9019.0188] came in with an IC50 of 806 nM.
The same measure, in the same setting: in the case of GCQVVQGNLELTYLP [Her/neu.52] it was 2740 nM; in that of ICTIDVYMIMVKCWM [Peptide 1622.04], 717 nM; in that of SSYLSGANLNLSCHS [CEA.603 peptide 9012.0137], 580 nM.
IEALLESSLRQAQQN [Cyclin D1.251] showed an IC50 of 18 nM.
Still for that read-out and setting: the result for DNSIRPEELLQMELL [Cyclin D1.129] reads 4680 nM; that for GPAYSGREIIYPNAS [CEA.92 peptide 9019.0111], 13000 nM; that for INGIPQQHTQVLFIA [CEA.629 peptide 9019.0139], 181 nM.
PERLAACGPPPVAPP [Peptide 9019.0179] came in with an IC50 of 5540 nM.
The same measure, in the same setting: the result for LAALCRWGLLLALLP [Her/neu.3] reads 5390 nM; that for ICELHCPALVTYNTD [Her2/neu.263], 754 nM.
The same measure, in the same setting: the result for TMNMLGGGGSAGRKP [Peptide 9019.0184] reads 791 nM; that for NDRVLRAMLKAEETC [Cyclin D1.24 peptide 9019.0147], 1960 nM; that for SPGLSAGATVGIMIG [CEA.680 peptide 9019.0144], 4190 nM.
Same read-out and setting: the result for RHLYQGCQVVQGNLE [Her/neu.47] reads 422 nM; that for APTISPLNTSYRSGE [CEA.239 peptide 9919.0121], 295 nM; that for MRKIVATWMLEVCEE [Cyclin D1.56], 7950 nM.
Regarding GYVIGTQQATPGPAY [CEA.81 peptide 9019.0110], the IC50 was 31 nM.

For another assay, the target named is T4, HLA-DR DRB1*0404 (human). Nature of the assay: radioligand inhibition, purified HLA-DR. To be noted: remark: other sources report otherwise.
In the case of GARMPCAELVREPGC [Peptide 9019.0181], the IC50 came to 13100 nM.
In the case of GVTVWELMTFGAKPY [Peptide 9019.0090], the IC50 was found to be 4.1 nM.
On the same count and under the same terms, in the case of DNSIRPEELLQMELL [Cyclin D1.129] it was 2800 nM; in that of KELAVFREKVTEQHR [Peptide 9019.0186], 26 nM.
As for TTPVTGASPGGLREL [Her2/neu.126], the IC50 stood at 675 nM.
The molecule APTISPLNTSYRSGE [CEA.239 peptide 9919.0121] displayed an IC50 of 40 nM.
On the same count and under the same terms, in the case of GYVIGTQQATPGPAY [CEA.81 peptide 9019.0110] it was 34 nM.

The target in the next assay is T5, HLA-DR DRB1*0101 (human). Nature of the assay: radioligand inhibition, purified HLA-DR. To be noted: remark: other sources report otherwise.
With GCQVVQGNLELTYLP [Her/neu.52], the IC50 turned out to be 2600 nM.
On the same count and under the same terms, in the case of SSYLSGANLNLSCHS [CEA.603 peptide 9012.0137] it was 40 nM.
On the same count and under the same terms, the result for EGPLPAARPAGATLE [Peptide 9019.0101] reads 17300 nM; that for GARMPCAELVREPGC [Peptide 9019.0181], 164 nM; that for IEALLESSLRQAQQN [Cyclin D1.251], 2610 nM.
Molecule DANLLNDRVLRAMLK [Cyclin D1.19 peptide 9019.0146] displayed a half-maximal inhibitory concentration (IC50) of 1460 nM.
For the molecule GVTVWELMTFGAKPY [Peptide 9019.0090], the IC50 worked out at 40 nM.
On the same count and under the same terms, in the case of DNSIRPEELLQMELL [Cyclin D1.129] it was 4550 nM; in that of GPAYSGREIIYPNAS [CEA.92 peptide 9019.0111], 9440 nM; in that of INGIPQQHTQVLFIA [CEA.629 peptide 9019.0139], 682 nM.
For NPQLCYQDTILWKDI [Her2/neu.158], the IC50 is 3650 nM.
PERLAACGPPPVAPP [Peptide 9019.0179] registered an IC50 of 28 nM.
Take LAALCRWGLLLALLP [Her/neu.3]: the IC50 is 2040 nM.
On to TVGIMIGVLVGVALI [CEA.688 peptide 9019.05], for which the IC50 was found to be 384 nM.
Take KELAVFREKVTEQHR [Peptide 9019.0186]: the IC50 stood at 2040 nM.
Same read-out and setting: in the case of TMNMLGGGGSAGRKP [Peptide 9019.0184] it was 1020 nM; in that of VAAVQGLNLRSPNNF [Cyclin D1.209], 44 nM; in that of SPGLSAGATVGIMIG [CEA.680 peptide 9019.0144], 3510 nM.
Same read-out and setting: in the case of AEVLFRCPPCTPERL [Peptide 9019.0178] it was 1280 nM; in that of TTPVTGASPGGLREL [Her2/neu.126], 992 nM.
On the same count and under the same terms, in the case of APTISPLNTSYRSGE [CEA.239 peptide 9919.0121] it was 2430 nM; in that of PEYVNQPDVRPQPPS [Peptide 9019.0100], 6160 nM; in that of MRKIVATWMLEVCEE [Cyclin D1.56], 764 nM.
As to GYVIGTQQATPGPAY [CEA.81 peptide 9019.0110], the IC50 was 21 nM.

The target in a further assay is T6, HLA-DR DRB1*1302 (human). Nature of the assay: radioligand inhibition, purified HLA-DR. As to conditions: remark: other sources report otherwise.
Consider SSYLSGANLNLSCHS [CEA.603 peptide 9012.0137], for which the IC50 was determined as 37 nM.
Still for that read-out and setting: the result for EGPLPAARPAGATLE [Peptide 9019.0101] reads 10200 nM; that for DANLLNDRVLRAMLK [Cyclin D1.19 peptide 9019.0146], 286 nM; that for GVTVWELMTFGAKPY [Peptide 9019.0090], 8860 nM.
Same read-out and setting: in the case of DNSIRPEELLQMELL [Cyclin D1.129] it was 939 nM; in that of GPAYSGREIIYPNAS [CEA.92 peptide 9019.0111], 154 nM.
Turning to NPQLCYQDTILWKDI [Her2/neu.158], the IC50 was 5070 nM.
In the case of LAALCRWGLLLALLP [Her/neu.3], the IC50 is 704 nM.
As to ICELHCPALVTYNTD [Her2/neu.263], the IC50 stood at 3220 nM.
Molecule TVGIMIGVLVGVALI [CEA.688 peptide 9019.05] came in with an IC50 of 5640 nM.
Molecule TMNMLGGGGSAGRKP [Peptide 9019.0184] returned an IC50 of 5690 nM.
As to SPGLSAGATVGIMIG [CEA.680 peptide 9019.0144], the IC50 was found to be 80 nM.
The same measure, in the same setting: in the case of AEVLFRCPPCTPERL [Peptide 9019.0178] it was 5770 nM; in that of RHLYQGCQVVQGNLE [Her/neu.47], 5040 nM; in that of TTPVTGASPGGLREL [Her2/neu.126], 6060 nM.
Still for that read-out and setting: the result for APTISPLNTSYRSGE [CEA.239 peptide 9919.0121] reads 125 nM; that for MRKIVATWMLEVCEE [Cyclin D1.56], 356 nM; that for GYVIGTQQATPGPAY [CEA.81 peptide 9019.0110], 43 nM.

The target in another assay is T7, HLA-DR DRB1*0701 (human). Nature of the assay: radioligand inhibition, purified HLA-DR. As to conditions: remark: other sources report otherwise.
On to GCQVVQGNLELTYLP [Her/neu.52], for which the IC50 was 1970 nM.
The same measure, in the same setting: in the case of EGPLPAARPAGATLE [Peptide 9019.0101] it was 7460 nM; in that of DNSIRPEELLQMELL [Cyclin D1.129], 6650 nM; in that of GPAYSGREIIYPNAS [CEA.92 peptide 9019.0111], 5260 nM.
INGIPQQHTQVLFIA [CEA.629 peptide 9019.0139] returned an IC50 of 31 nM.
LAALCRWGLLLALLP [Her/neu.3] displayed an IC50 of 8000 nM.
Molecule TVGIMIGVLVGVALI [CEA.688 peptide 9019.05] came in with an IC50 of 4450 nM.
Still for that read-out and setting: the result for TMNMLGGGGSAGRKP [Peptide 9019.0184] reads 6180 nM; that for SPGLSAGATVGIMIG [CEA.680 peptide 9019.0144], 92 nM.
The same measure, in the same setting: in the case of AEVLFRCPPCTPERL [Peptide 9019.0178] it was 16000 nM; in that of RHLYQGCQVVQGNLE [Her/neu.47], 4940 nM; in that of APTISPLNTSYRSGE [CEA.239 peptide 9919.0121], 10600 nM.
MRKIVATWMLEVCEE [Cyclin D1.56] had an IC50 of 249 nM.
The same measure, in the same setting: in the case of GYVIGTQQATPGPAY [CEA.81 peptide 9019.0110] it was 1700 nM.

For a further assay, the target named is T8, HLA-DR DRB4*0101 (human). Nature of the assay: radioligand inhibition, purified HLA-DR. As to conditions: remark: other sources report otherwise.
SSYLSGANLNLSCHS [CEA.603 peptide 9012.0137] yielded an IC50 of 42 nM.
For GARMPCAELVREPGC [Peptide 9019.0181], the IC50 was 4700 nM.
Molecule DNSIRPEELLQMELL [Cyclin D1.129] returned an IC50 of 87 nM.
INGIPQQHTQVLFIA [CEA.629 peptide 9019.0139] yielded an IC50 of 2700 nM.
The same measure, in the same setting: in the case of ICELHCPALVTYNTD [Her2/neu.263] it was 441 nM; in that of TVGIMIGVLVGVALI [CEA.688 peptide 9019.05], 12100 nM; in that of SPGLSAGATVGIMIG [CEA.680 peptide 9019.0144], 2590 nM.
Still for that read-out and setting: in the case of MRKIVATWMLEVCEE [Cyclin D1.56] it was 281 nM; in that of GYVIGTQQATPGPAY [CEA.81 peptide 9019.0110], 63 nM.
